Consider 2 compounds from publication PMC5939945 (ACS combinatorial science, 2017).

In one experiment the target is eIF4E (Homo sapiens, UniProt P06730). Briefly: PPI cat-ELCCA chemiluminescent competition assay of eIF4E–4E-BP1. The experiment is classed as binding.
Experiment [1] addresses biotinylated eIF4E (eukaryotic translation initiation factor 4E), N-terminal HaloTag fusion (UniProt P06730). Briefly: PPI cat-ELCCA.
Experiment [2] has the same target. Kind of experiment: ELISA. A general note: An ELISA detects its analyte on a solid surface through an enzyme-linked reagent.

Chain of biotinylated eIF4E (eukaryotic translation initiation factor 4E), N-terminal HaloTag fusion (P06730 whole entry, the tested form may be a part): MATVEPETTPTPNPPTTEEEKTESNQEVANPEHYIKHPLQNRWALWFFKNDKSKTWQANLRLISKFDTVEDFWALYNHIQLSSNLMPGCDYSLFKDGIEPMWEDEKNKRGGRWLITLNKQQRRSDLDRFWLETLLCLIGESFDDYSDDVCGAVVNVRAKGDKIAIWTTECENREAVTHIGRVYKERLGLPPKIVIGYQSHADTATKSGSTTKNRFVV
Chain of unlabeled 4E-BP1 protein (Q13541 whole entry): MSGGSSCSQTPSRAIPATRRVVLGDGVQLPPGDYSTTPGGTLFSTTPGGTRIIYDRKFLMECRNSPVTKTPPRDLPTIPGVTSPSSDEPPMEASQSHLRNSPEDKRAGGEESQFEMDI
Chain of eIF4E (P06730 2-217): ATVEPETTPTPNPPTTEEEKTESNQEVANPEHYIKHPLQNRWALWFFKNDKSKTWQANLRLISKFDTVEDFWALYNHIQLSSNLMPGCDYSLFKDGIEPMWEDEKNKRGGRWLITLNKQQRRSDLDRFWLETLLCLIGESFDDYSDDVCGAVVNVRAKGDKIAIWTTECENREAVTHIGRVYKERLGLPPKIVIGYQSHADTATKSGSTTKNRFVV
Chain of eIF4E (Q13541 2-118 partner): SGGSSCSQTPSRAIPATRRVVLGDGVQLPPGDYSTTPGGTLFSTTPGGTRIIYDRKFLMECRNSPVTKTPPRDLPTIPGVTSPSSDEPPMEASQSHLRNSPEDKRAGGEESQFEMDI
Chain of eIF4E (Q04637 whole entry partner, the tested form may be a part): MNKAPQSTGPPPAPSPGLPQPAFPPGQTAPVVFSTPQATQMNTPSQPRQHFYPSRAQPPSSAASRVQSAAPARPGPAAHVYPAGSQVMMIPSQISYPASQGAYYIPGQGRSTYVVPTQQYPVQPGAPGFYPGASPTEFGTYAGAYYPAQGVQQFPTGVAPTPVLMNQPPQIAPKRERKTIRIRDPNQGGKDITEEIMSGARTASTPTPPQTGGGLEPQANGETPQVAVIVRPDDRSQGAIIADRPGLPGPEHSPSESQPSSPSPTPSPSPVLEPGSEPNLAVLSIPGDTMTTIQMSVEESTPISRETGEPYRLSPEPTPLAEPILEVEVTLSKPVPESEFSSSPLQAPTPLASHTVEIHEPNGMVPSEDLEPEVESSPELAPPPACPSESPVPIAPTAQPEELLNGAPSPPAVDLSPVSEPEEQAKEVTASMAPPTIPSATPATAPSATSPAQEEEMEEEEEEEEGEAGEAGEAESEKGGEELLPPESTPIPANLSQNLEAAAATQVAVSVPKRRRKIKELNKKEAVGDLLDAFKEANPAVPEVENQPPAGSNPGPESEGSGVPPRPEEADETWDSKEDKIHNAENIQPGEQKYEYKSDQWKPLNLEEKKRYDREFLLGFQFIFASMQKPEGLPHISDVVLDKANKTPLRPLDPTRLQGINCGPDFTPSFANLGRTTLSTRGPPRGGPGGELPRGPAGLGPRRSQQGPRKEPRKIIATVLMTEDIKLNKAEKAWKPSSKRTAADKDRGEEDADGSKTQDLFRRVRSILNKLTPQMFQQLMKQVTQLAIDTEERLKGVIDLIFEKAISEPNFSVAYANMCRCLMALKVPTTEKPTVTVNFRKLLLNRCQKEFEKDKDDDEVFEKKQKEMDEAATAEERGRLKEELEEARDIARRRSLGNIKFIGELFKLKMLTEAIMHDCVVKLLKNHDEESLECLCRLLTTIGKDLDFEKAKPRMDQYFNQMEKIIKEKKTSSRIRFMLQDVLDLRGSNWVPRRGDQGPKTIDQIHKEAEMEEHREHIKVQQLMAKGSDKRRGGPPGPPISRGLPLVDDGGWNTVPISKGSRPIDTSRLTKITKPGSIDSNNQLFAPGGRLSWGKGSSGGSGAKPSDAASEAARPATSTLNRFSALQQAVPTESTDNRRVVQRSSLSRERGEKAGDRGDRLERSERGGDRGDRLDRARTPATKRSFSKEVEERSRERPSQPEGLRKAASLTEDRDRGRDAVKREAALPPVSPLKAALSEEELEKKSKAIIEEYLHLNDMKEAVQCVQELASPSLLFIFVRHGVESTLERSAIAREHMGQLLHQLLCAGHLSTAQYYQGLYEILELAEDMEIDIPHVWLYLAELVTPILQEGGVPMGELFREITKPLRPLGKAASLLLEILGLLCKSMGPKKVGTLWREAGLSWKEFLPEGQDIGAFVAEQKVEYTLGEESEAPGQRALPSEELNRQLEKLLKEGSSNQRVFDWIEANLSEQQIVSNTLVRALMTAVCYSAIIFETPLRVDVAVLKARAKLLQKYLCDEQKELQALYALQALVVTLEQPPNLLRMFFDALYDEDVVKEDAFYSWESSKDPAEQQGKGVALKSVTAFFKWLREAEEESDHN

Usually IC50 stands for the midpoint of a concentration-inhibition curve. A high value points to weaker potency. Compound `O=C(O)c1ccc(N2C(=O)/C(=C\c3ccc(-c4ccc([N+](=O)[O-])cc4)o3)C=C2c2ccccc2)cc1` [4E1RCat] registered a concentration for half-maximal inhibition (IC50) on eIF4E of 1800 ± 600 nM.

One may read the Kd as the equilibrium constant for the complex coming apart. In turn, “unlabeled 4E-BP1 protein (from UniProt Q13541 1-118) (natural protein; other documents disagree on this pair)” gave a concentration for half-maximal inhibition (IC50) in experiment [1] of 11 nM. In experiment [2], this compound yielded a Kd of 19 nM.
